Measurements published in US20110217237A1 (AbbVie / Abbott, published 2011).
Read-outs that look alike come from different tables or passages of the source.

Key:
[1] = target: T1, mouse DLL4 extracellular domain (mouse, UniProt Q9JI71 27-532); test: SPR (Biacore)
T1 construct: extracellular domain; also called muDLL4 ECD; murine DLL4
Description: (§1) The BIACORE® surface plasmon resonance assay (Biacore, Inc., Piscataway, N.J., US) determines the affinity of antibodies with kinetic measurements of on-rate and off-rate constants. Binding of DLL4 antibodies to a purified recombinant DLL4 extracellular domain (ECD) was determined by surface plasmon resonance-based measurements with a Biacore® instrument (either a Biacore 2000, Biacore 3000, or Biacore T100; GE Healthcare, Piscataway, N.J., US) using running buffer HBS-EPB (10 mM HEPES [pH 7.4], 150 mM NaCl, 3 mM EDTA, 0.1 mg/ml BSA and 0.005% surfactant P20) at 25° C. For example, approximately 9000 RU of goat anti-human Fc specific polyclonal antibody (Thermo Fisher Scientific Inc., Rockford, Ill., US) diluted in 10 mM sodium acetate (pH 4.5) is directly immobilized across a CMS research grade biosensor chip using a standard amine coupling kit according to manufacturer's instructions and procedures at 25 μg/ml. Unreacted moieties on the biosensor surface were blocked with ethanolamine. For kinetic analysis, rate equations derived from the 1:1 Langmuir binding model were fitted simultaneously to multiple antigen injections (using global fit analysis) with the use of Scrubber 2 (BioLogic Software), Biacore Biaevaluation 4.0.1 software or Biacore T100 Evaluation software. Purified antibodies were diluted in running buffer for capture across goat anti-human Fc reaction surfaces. Antibodies to be captured as a ligand (1 μg/ml) were injected over reaction matrices at a flow rate of 10 μl/min. During the assay, all measurements were referenced against the capture surface alone (i.e., with no captured anti-DLL4 antibody). […] The equilibrium dissociation constant KD (M) of the reaction between antibodies and the target antigen was then calculated from the kinetic rate constants by the following formula: KD=Koff/Kₒₙ. Binding was recorded as a function of time and kinetic rate constants were calculated.

[2] = target: T2, human DLL4 extracellular domain (human, UniProt Q9NR61 27-529); test: SPR (Biacore)
T2 construct: purified recombinant ECD; biotin-labelled or 6xHis-tagged depending on the assay; also called huDLL4 ECD; hu DLL4 ECD
Description: as §1

[3] = target: T1, mouse DLL4 extracellular domain; test: binding ELISA
Description: (§2) Plates were then washed 3 times. 100 μl/well of recombinant rat/human chimeric or recombinant human anti-DLL4 antibodies were then added to the plate (0.00164-27 nM, 4-fold serial dilution in ELISA buffer=PBST, 10% Superblock (Pierce #37515)) for 1 hour at 25° C. with shaking and then washed again 3 times. Plates were incubated with goat anti-human HRP (Pierce #31412) (1:40,000 dilution in ELISA buffer, 100 μl/well) for 1 hour at 25° C. with shaking, then washed 3 times. After the final wash, plates were incubated with 100 μl/well ELISA substrate (Sigma #T8665). The reaction was stopped after 8 minutes at 25° C. with 100 μl/well 1N HCl and the absorbance was read at 450 nm. Data were analyzed using Graphpad Prism software, and EC50 values were reported.
(§3) Purified variants were further characterized for their affinities for human, murine and cynomolgus DLL4 by binding ELISA (Example 1.2, Method 2), by Biacore (Example 1.1), and by Flow Cytometry (FACS). […] The humanized variants were then tested for their functionality with human and murine DLL4 by competition ELISA (Example 1.3) and by Notch reporter assay (Example 1.6).

[4] = target: T2, human DLL4 extracellular domain; test: binding ELISA
Description: as §2, §3

[5] = target: T3, cynomolgus monkey DLL4 extracellular domain (cynomolgus monkey); test: binding ELISA
T3 construct: extracellular domain; also called cynoDLL4 ECD; Cyno DLL4
Description: as §2, §3

[6] = target: T1, mouse DLL4 extracellular domain; test: competition ELISA vs Notch-1
Description: (§4) Plates were then washed 3 times with wash buffer (PBS, 0.05% Tween-20) and blocked with 200 μl/well blocking buffer (D-PBS, 1% BSA, 1 mM CaCl₂, 0.05% Tween-20) for 1 hour at 25° C. While blocking, biotin labeled DLL4 extracellular domain (14 nM) was mixed with antibody (30 pM-66 nM, 3-fold serial dilution in blocking buffer) for 1 hour at 25° C. with shaking. Assay plates were washed after blocking, and incubated with DLL4/antibody mixtures (100 μl/well, 1 hour at 25° C. with shaking). Plates were washed again and 100 μl/well streptavidin conjugated with HRP (Fitzgerald #65R-S104PHRPx, diluted 1:5,000 in blocking buffer) was added for 1 hour at 25° C. with shaking. After a final wash, plates were developed using 100 μl/well substrate (TMB Sigma #T8665), and the reaction was stopped using 100 μl/well 1N HCl, and the absorbance was read at 450 nm. Data were analyzed using Graphpad Prism software and IC₅₀ values were reported as the concentration of antibody to achieve 50% reduction of DLL4 bound to Notch1.
as §3

[7] = target: T2, human DLL4 extracellular domain; test: competition ELISA vs Notch-1
Description: as §4, §3

mouse DLL4 on cells [8] = target: T4, mouse DLL4 on cells (mouse, UniProt Q9JI71 27-686); test: FACS, DLL4 cells
T4 construct: whole, on cells; also called mouse DLL4-293G; mu DLL4 cells

[9] = target: T5, human DLL4, full length, on cells (human, UniProt Q9NR61 27-685); test: FACS, DLL4 cells
T5 construct: also called huDLL4 cells; human DLL4-293G

[10] = target: T5, human DLL4, full length, on cells; test: cell-based or functional assay
[11] = target: T1, mouse DLL4 extracellular domain; test: SPR (Biacore); remark: listed apart in the source
Description: as §1

[12] = target: T6, rat DLL4 extracellular domain (rat, UniProt D3ZHH1 28-530); test: SPR (Biacore)
T6 construct: extracellular domain; also called ratDLL4 ECD
Description: as §1

mouse DLL4 on cells [13] = target: T4, mouse DLL4 on cells; test: cell-based or functional assay
[14] = target: T5, human DLL4, full length, on cells; test: cell-based or functional assay; remark: listed apart in the source
[15] = target: T2, human DLL4 extracellular domain; test: SPR (Biacore); remark: listed apart in the source
Description: as §1

[16] = target: T3, cynomolgus monkey DLL4 extracellular …; test: SPR (Biacore)
Description: as §1

mouse DLL4 on cells [17] = target: T4, mouse DLL4 on cells; test: FACS, direct binding to DLL4 cells
Description: (§5) Stable cell lines overexpressing cell-surface DLL4 were harvested from tissue culture flasks, washed four times and resuspended in phosphate buffered saline (PBS) containing 1% bovine serum albumin and 1 mM CaCl₂ (FACS buffer). 1.5×10⁵ cells were incubated with antibodies at various concentrations in FACS buffer for 60 minutes on ice. […] Following an incubation on ice (4° C., 60 minutes), cells were washed three times and resuspended in FACS buffer. Fluorescence was measured using a Becton Dickinson FACSCalibur-HTS (Becton Dickinson, San Jose, Calif., US). Data were analyzed using Graphpad Prism software and EC₅₀ values were reported as the concentration of antibody to achieve 50% of maximal DLL4 antibodies binding to DLL4 expressing cells.
(§6) The hu1A11.1 affinity matured clones (Table 22) were expressed, purified, and further characterized in vitro. Their activities of binding to cell-bound DLL4 and inhibiting cell-bound DLL4-induced Notch activation were further examined using methods described in Examples 1.3 and 1.6, and are summarized in Table 26 (below).

[18] = target: T5, human DLL4, full length, on cells; test: FACS, direct binding to DLL4 cells
Description: as §5, §6

T2 sequence (Q9NR61 27-529 limits assumed): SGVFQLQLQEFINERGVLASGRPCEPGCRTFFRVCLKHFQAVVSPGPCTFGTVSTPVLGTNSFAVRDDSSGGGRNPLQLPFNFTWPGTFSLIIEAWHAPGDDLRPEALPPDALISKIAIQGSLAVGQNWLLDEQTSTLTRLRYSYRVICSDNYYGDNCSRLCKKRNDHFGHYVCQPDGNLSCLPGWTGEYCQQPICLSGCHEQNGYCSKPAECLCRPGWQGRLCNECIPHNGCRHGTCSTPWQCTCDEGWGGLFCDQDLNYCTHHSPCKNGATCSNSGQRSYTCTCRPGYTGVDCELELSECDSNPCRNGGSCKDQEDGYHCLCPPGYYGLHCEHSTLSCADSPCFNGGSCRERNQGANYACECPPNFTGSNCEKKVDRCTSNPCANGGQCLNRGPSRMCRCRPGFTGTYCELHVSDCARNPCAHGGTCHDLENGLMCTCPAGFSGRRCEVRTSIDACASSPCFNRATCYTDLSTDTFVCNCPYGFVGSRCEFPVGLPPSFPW
T1 sequence (Q9JI71 27-532): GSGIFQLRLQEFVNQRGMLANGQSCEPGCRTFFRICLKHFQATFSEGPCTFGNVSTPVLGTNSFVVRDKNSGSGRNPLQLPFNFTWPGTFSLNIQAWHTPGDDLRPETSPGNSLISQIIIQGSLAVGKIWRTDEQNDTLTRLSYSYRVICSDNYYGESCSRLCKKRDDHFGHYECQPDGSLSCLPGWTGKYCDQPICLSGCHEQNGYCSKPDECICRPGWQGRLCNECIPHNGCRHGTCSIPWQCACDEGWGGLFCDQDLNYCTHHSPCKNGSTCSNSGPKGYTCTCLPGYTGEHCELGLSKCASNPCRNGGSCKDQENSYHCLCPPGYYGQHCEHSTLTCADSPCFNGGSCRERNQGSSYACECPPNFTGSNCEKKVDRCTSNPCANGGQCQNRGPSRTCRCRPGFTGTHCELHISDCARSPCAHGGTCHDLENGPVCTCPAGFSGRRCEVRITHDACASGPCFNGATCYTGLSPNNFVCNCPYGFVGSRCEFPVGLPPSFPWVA
T4 sequence (Q9JI71 27-686): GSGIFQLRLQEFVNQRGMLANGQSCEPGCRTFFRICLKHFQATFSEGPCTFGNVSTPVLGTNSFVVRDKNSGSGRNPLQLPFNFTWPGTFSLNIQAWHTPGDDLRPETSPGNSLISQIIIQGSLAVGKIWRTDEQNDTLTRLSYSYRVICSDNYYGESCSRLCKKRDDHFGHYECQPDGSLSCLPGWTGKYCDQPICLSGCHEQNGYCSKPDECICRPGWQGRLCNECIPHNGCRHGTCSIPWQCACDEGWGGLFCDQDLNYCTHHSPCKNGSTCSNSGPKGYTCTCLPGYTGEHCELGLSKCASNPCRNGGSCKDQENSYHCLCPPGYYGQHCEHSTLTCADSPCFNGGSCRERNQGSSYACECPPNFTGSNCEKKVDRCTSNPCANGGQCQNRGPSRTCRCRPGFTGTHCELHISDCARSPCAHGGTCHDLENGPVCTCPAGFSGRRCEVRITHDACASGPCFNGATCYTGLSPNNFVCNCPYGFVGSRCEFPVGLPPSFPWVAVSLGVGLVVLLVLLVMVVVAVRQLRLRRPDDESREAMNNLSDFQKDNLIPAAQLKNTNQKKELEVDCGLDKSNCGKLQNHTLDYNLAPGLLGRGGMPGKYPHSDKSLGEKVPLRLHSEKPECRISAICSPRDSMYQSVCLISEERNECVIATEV
T6 sequence (D3ZHH1 28-530): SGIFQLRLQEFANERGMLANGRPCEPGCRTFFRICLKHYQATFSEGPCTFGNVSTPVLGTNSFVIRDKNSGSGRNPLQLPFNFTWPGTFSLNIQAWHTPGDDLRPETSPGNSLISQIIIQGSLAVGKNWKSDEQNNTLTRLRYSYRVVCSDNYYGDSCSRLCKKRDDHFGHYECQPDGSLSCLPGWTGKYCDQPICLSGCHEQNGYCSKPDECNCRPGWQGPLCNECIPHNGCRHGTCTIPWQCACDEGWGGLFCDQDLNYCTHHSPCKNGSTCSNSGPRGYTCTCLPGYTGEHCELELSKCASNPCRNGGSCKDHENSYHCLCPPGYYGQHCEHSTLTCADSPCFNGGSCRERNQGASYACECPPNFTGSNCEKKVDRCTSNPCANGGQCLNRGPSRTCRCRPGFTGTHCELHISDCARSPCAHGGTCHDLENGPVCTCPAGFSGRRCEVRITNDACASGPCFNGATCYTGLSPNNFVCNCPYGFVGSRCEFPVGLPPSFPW
T5 sequence (Q9NR61 27-685 limits assumed): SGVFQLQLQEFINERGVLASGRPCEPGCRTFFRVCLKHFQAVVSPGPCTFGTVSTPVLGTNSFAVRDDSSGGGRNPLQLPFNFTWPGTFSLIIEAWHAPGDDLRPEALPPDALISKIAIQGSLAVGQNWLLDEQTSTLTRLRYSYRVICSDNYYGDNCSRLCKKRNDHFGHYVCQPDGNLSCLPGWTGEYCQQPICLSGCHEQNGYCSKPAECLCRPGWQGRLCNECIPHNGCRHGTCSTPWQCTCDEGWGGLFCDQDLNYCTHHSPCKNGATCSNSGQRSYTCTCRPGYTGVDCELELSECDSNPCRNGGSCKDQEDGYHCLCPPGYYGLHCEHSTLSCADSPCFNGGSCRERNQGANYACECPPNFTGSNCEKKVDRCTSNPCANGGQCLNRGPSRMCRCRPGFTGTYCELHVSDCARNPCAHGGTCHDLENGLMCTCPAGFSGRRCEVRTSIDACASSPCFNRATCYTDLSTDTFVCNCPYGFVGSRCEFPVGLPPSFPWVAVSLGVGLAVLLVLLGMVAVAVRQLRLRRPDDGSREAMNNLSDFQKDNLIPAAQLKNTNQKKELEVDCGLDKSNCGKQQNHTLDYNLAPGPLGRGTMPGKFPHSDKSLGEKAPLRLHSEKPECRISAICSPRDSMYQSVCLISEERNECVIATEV

Kd [1] | Kd [2] | EC50 [3] | EC50 [4] | EC50 [5] | IC50 [6] | IC50 [7] | EC50 (mouse DLL4 on cells [8]) | EC50 [9] | Reporter Assay (EC50, nM) [10] | also measured | Binder
19000 pM | 10000 pM | 90 pM | 80 pM | 130 pM | 900 pM | 300 pM | 210 pM | 2850 pM | 3.92 nM |  | h1A11.2 (antibody, V domains shown, humanized IgG; also called VH.1/VL.1a 1A11) VH: EVQLVESGGGLVQPGGSLRLSCAASGFTFSNFPMAWVRQAPGKGLEWVATISSSDGTTYYRDSVKGRFTISRDNAKNSLYLQMNSLRAEDTAVYYCARGYYNSPFAYWGQGTLVTVSS VL: DIQMTQSPSSLSASVGDRVTITCRASEDIYSNLAWYQQKPGKSPKLLIFDTNNLADGVPSRFSGSGSGTDSTLTISSLQPEDFATYFCQQYNNYPPTFGQGTKLEIKR
 |  |  |  |  |  |  |  |  |  | Kd [11]: 330 pM; koff [11]: 5.07e-05 s⁻¹; kon [11]: 154000 M⁻¹ s⁻¹; Kd [12]: 16000 pM; koff [12]: 0.00283 s⁻¹; kon [12]: 178000 M⁻¹ s⁻¹; Inhibition of Notch Activation via DLL4 cells, Notch reporter assay (mouse DLL4 on cells [13]): 0.586 nM; Inhibition of Notch Activation via DLL4 cells, Notch reporter assay [14]: 0.856 nM; Kd [15]: 270 pM; koff [15]: 3.85e-05 s⁻¹; kon [15]: 143000 M⁻¹ s⁻¹; Kd [16]: 350 pM; koff [16]: 4.6e-05 s⁻¹; kon [16]: 131000 M⁻¹ s⁻¹; EC50 (mouse DLL4 on cells [17]): 420 pM; EC50 [18]: 1980 pM | h1A11.H2 (antibody, V domains shown, also called h1A11.H2 VH / h1A11.E12 VL) VH: EVQLVESGGGLVQPGGSLRLSCAASGFTFGNFPMSWVRQAPGKGLEWVASISSSDSWATIGDSVKGRFTISRDNAKNSLYLQMNSLRAEDTAVYYCARGYYNSPFAFWGQGTLVTVSS VL: DIQMTQSPSSLSASVGDRVTITCRASQEIYRNLAWYQQKPGKSPKLLIFDTSVLADGVPSRFSGSGSGTDSTLTISSLQPEDFATYYCQQYTYYPPTFGQGTKLEIK
22000 pM | 9600 pM | 80 pM | 70 pM | 160 pM | 800 pM | 300 pM | 210 pM | 3610 pM | 3.8 nM |  | h1A11.5 (antibody, V domains shown, humanized IgG; also called VH.1a/VL.1 1A11) VH: EVQLVESGGGLVQPGGSLRLSCAASGFTFSNFPMAWVRQAPGKGLEWVATISSSDGTTYYRDSVKGRFTISRDNAKSSLYLQMNSLRAEDTAVYYCSRGYYNSPFAYWGQGTLVTVSS VL: DIQMTQSPSSLSASVGDRVTITCRASEDIYSNLAWYQQKPGKAPKLLIYDTNNLADGVPSRFSGSGSGTDFTLTISSLQPEDFATYYCQQYNNYPPTFGQGTKLEIKR
34000 pM | 13000 pM | 90 pM | 70 pM | 150 pM | 900 pM | 300 pM | 180 pM | 3280 pM | 3.18 nM |  | h1A11.9 (antibody, V domains shown, humanized IgG; also called VH.1b/VL.1 1A11) VH: EVQLVESGGGLVQPGGSLRLSCAASGFTFSNFPMAWVRQAPGKGLEWVATISSSDGTTYYRDSVKGRFTISRDNAKNSLYLQMNSLRAEDTAVYYCSRGYYNSPFAYWGQGTLVTVSS VL: DIQMTQSPSSLSASVGDRVTITCRASEDIYSNLAWYQQKPGKAPKLLIYDTNNLADGVPSRFSGSGSGTDFTLTISSLQPEDFATYYCQQYNNYPPTFGQGTKLEIKR
35000 pM | 13000 pM | 90 pM | 60 pM | 140 pM | 900 pM | 500 pM | 180 pM | 3710 pM | 4.84 nM |  | h1A11.7 (antibody, V domains shown, humanized IgG; also called VH.1a/VL.1b 1A11) VH: EVQLVESGGGLVQPGGSLRLSCAASGFTFSNFPMAWVRQAPGKGLEWVATISSSDGTTYYRDSVKGRFTISRDNAKSSLYLQMNSLRAEDTAVYYCSRGYYNSPFAYWGQGTLVTVSS VL: DIQMTQSPSSLSASVGDRVTITCRASEDIYSNLAWYQQKPGKAPKLLIFDTNNLADGVPSRFSGSGSGTDFTLTISSLQPEDFATYYCQQYNNYPPTFGQGTKLEIKR
31000 pM | 11300 pM | 100 pM | 80 pM | 130 pM | 800 pM | 400 pM | 150 pM | 3740 pM | 1.45 nM |  | h1A11.6 (antibody, V domains shown, humanized IgG; also called VH.1a/VL.1a 1A11) VH: EVQLVESGGGLVQPGGSLRLSCAASGFTFSNFPMAWVRQAPGKGLEWVATISSSDGTTYYRDSVKGRFTISRDNAKSSLYLQMNSLRAEDTAVYYCSRGYYNSPFAYWGQGTLVTVSS VL: DIQMTQSPSSLSASVGDRVTITCRASEDIYSNLAWYQQKPGKSPKLLIFDTNNLADGVPSRFSGSGSGTDSTLTISSLQPEDFATYFCQQYNNYPPTFGQGTKLEIKR
